Target: wild-type human serum retinol binding protein with an N-terminal hemagglutinin tag (RBP^HA WT) (human, UniProt P02753 19-201)
Assay: ELISA

- Kd: 59 nM
B1: STRA6 (stimulated by retinoic acid 6) membrane receptor with a myc tag (STRA6^myc) (receptor, UniProt Q9BX79 1-667, looked up)
chain: MSSQPAGNQTSPGATEDYSYGSWYIDEPQGGEELQPEGEVPSCHTSIPPGLYHACLASLSILVLLLLAMLVRRRQLWPDCVRGRPGLPSPVDFLAGDRPRAVPAAVFMVLLSSLCLLLPDEDALPFLTLASAPSQDGKTEAPRGAWKILGLFYYAALYYPLAACATAGHTAAHLLGSTLSWAHLGVQVWQRAECPQVPKIYKYYSLLASLPLLLGLGFLSLWYPVQLVRSFSRRTGAGSKGLQSSYSEEYLRNLLCRKKLGSSYHTSKHGFLSWARVCLRHCIYTPQPGFHLPLKLVLSATLTGTAIYQVALLLLVGVVPTIQKVRAGVTTDVSYLLAGFGIVLSEDKQEVVELVKHHLWALEVCYISALVLSCLLTFLVLMRSLVTHRTNLRALHRGAALDLSPLHRSPHPSRQAIFCWMSFSAYQTAFICLGLLVQQIIFFLGTTALAFLVLMPVLHGRNLLLFRSLESSWPFWLTLALAVILQNMAAHWVFLETHDGHPQLTNRRVLYAATFLLFPLNVLVGAMVATWRVLLSALYNAIHLGQMDLSLLPPRAATLDPGYYTYRNFLKIEVSQSHPAMTAFCSLLLQAQSLLPRTMAAPQDSLRPGEEDEGMQLLQTKDSMAKGARPGASRGRARWGLAYTLLHNPTLQVFRKTALLGANGAQP

— article PMC4409664 (Cell, 2015)
